Reference: publication PMC12329599, “Acetylation of microtubule-binding PinX1 orchestrates ribosome biogenesis to nutrient starvation via the RNA polymerase I preinitiation complex” (The Journal of Biological Chemistry, 2025)

B1: GST-PinX1 full-length (natural protein, human, UniProt Q96BK5 1-328, looked up)
chain: MSMLAERRRKQKWAVDPQNTAWSNDDSKFGQRMLEKMGWSKGKGLGAQEQGATDHIKVQVKNNHLGLGATINNEDNWIAHQDDFNQLLAELNTCHGQETTDSSDKKEKKSFSLEEKSKISKNRVHYMKFTKGKDLSSRSKTDLDCIFGKRQSKKTPEGDASPSTPEENETTTTSAFTIQEYFAKRMAALKNKPQVPVPGSDISETQVERKRGKKRNKEATGKDVESYLQPKAKRHTEGKPERAEAQERVAKKKSAPAEEQLRGPCWDQSSKASAQDAGDHVQPPEGRDFTLKPKKRRGKKKLQKPVEIAEDATLEETLVKKKKKKDSK
notes: PinX1, human, full length, cloned into pGEX-4T-3; also called GST-PinX1 FL; full length GST-PinX1; source: TSsetta (DE3) bacteria, IPTG-induced, purified (Glutathione-Sepharose 4B)
B2: GST-PinX1 central section (aa 70–253) (domain or fragment, human, UniProt Q96BK5 70-253, looked up)
chain: TINNEDNWIAHQDDFNQLLAELNTCHGQETTDSSDKKEKKSFSLEEKSKISKNRVHYMKFTKGKDLSSRSKTDLDCIFGKRQSKKTPEGDASPSTPEENETTTTSAFTIQEYFAKRMAALKNKPQVPVPGSDISETQVERKRGKKRNKEATGKDVESYLQPKAKRHTEGKPERAEAQERVAKKK
notes: the truncations were of GST-PinX1; also called GST-PinX1 truncation; source: TSsetta (DE3) bacteria, IPTG-induced, purified (Glutathione-Sepharose 4B)

Biological target: T1, Strep2-POLR1G (human, UniProt O15446 1-510)
T1 construct: POLR1G (RNA polymerase I subunit G), human, cloned into pET45a-Strep2; also called Strep2-tagged POLR1G; source: TSsetta (DE3) bacteria, purified (anti-Strep2 tag agarose beads)
T1 sequence (O15446 whole entry): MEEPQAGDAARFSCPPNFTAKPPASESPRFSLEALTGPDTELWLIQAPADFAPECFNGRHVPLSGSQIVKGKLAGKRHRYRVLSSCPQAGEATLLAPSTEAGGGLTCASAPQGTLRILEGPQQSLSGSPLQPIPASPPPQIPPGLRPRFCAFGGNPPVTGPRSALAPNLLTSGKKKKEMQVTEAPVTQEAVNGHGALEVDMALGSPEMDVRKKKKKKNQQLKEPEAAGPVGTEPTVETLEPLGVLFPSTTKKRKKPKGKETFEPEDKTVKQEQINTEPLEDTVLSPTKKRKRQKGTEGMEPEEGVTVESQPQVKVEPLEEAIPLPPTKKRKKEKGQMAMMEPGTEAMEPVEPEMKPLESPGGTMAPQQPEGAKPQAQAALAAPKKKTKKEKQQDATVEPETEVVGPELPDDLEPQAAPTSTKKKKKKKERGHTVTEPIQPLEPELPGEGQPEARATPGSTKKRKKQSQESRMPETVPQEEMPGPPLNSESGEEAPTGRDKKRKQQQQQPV
Assay: pull-down; GST-PinX1 proteins on glutathione beads incubated with purified Strep2- or HA-tagged proteins in BC200 buffer (200 mM NaCl, 20 mM Tris-HCl pH 7.9, 20% glycerol, 0.2% NP-40) at 4 °C overnight; washed with BC500, BC200 or BC100; Western blot
Conditions: both partners purified

| Binder | binding result |
| --- | --- |
| B1 | binds |
| B2 | binds |
